Source: PMC5957299

Experiments:
[1] = anti-FLAG IP/blot of media, TM 2 μg/ml 12 h; conditions: glycan lost; control: same construct, untreated
[2] = FVIII antigen ELISA, 293T cell extracts; conditions: control: WT full-length FVIII
[3] = Coatest SP4 chromogenic assay, 293T media; conditions: control: WT full-length FVIII
[4] = FVIII antigen ELISA, 293T conditioned media; conditions: control: WT full-length FVIII
[5] = chromogenic activity / ELISA antigen ratio in media; conditions: control: WT full-length FVIII
[6] = anti-FLAG IP/blot of 293T conditioned media; conditions: glycan lost

For “Coagulation factor VIII (FVIII): TM, WT C domain”, the expression_or_secretion [1] was “decreases”.
In the case of “Coagulation factor VIII (FVIII): TM, G701S A2 domain”, the expression_or_secretion [1] is reported as “decreases”.
With Coagulation factor VIII (FVIII): D2131N the “expression_or_secretion, percent_of_wt” value ([2]; glycan gained) was “no change”, the “other: cofactor (coagulant) activity in conditioned media, percent_of_wt” value (from here on “other: cofactor … percent_of_wt”) ([3]; glycan gained) was “decreases” and the “expression_or_secretion, percent_of_wt” value ([4]; glycan gained) was “no change”. The “other: relative (specific) cofactor activity, percent_of_wt” value ([5]; glycan gained) was “decreases”.
For “Coagulation factor VIII (FVIII): TM, M614T A2 domain”, the expression_or_secretion [1] was “no change”.
For Coagulation factor VIII (FVIII): N2118Q, the “expression_or_secretion, percent_of_wt” value ([2]; glycan lost) was “no change”, the “other: cofactor … percent_of_wt” value ([3]; glycan lost) was “no change” and the “expression_or_secretion, percent_of_wt” value ([4]; glycan lost) was “no change”. The expression_or_secretion ([6]; control: WT C domain) was “decreases” and the “other: relative (specific) cofactor activity, percent_of_wt” value ([5]; glycan lost) was “no change”.
In the case of “Coagulation factor VIII (FVIII): TM, I566T A2 domain”, the expression_or_secretion [1] is reported as “decreases”.
With Coagulation factor VIII (FVIII): W2062S the “expression_or_secretion, percent_of_wt” value ([2]; glycan gained) was “no change”, the “other: cofactor … percent_of_wt” value ([3]; glycan gained) was “decreases” and the “expression_or_secretion, percent_of_wt” value ([4]; glycan gained) was “no change”. For the same substance, the “other: relative (specific) cofactor activity, percent_of_wt” value ([5]; glycan gained) was “decreases”.
In the case of “Coagulation factor VIII (FVIII): TM, A469S A2 domain”, the expression_or_secretion [1] is reported as “increases”.
For “Coagulation factor VIII (FVIII): N2118Q + D2131N”, the expression_or_secretion ([6]; control: D2131N C domain) was “abolishes”.
With “Coagulation factor VIII (FVIII): TM, A469T A2 domain” the expression_or_secretion [1] was “increases”.
